Laboratory results taken from PMC3977201.

Molecular target: APOBEC3G labeled with EGFP (A3G-EGFP), wild type (human), Q9HC16
Assay: fluorescence fluctuation spectroscopy
Conditions: remark: other sources report otherwise

normalized brightness at 1 uM: 10
B1: APOBEC3G labeled with EGFP (A3G-EGFP), wild type, Q9HC16 1-384 (natural protein)
chain: MKPHFRNTVERMYRDTFSYNFYNRPILSRRNTVWLCYEVKTKGPSRPPLDAKIFRGQVYSELKYHPEMRFFHWFSKWRKLHRDQEYEVTWYISWSPCTKCTRDMATFLAEDPKVTLTIFVARLYYFWDPDYQEALRSLCQKRDGPRATMKIMNYDEFQHCWSKFVYSQRELFEPWNNLPKYYILLHIMLGEILRHSMDPPTFTFNFNNEPWVRGRHETYLCYEVERMHNDTWVLLNQRRGFLCNQAPHKHGFLEGRHAELCFLDVIPFWKLDLDQDYRVTCFTSWSPCFSCAQEMAKFISKNKHVSLCIFTARIYDDQGRCQEGLRTLAEAGAKISIMTYSEFKHCWDTFVDHQGCPFQPWDGLDEHSQDLSGRLRAILQNQEN
